T1: Bfl-1, biotinylated (C-terminal avi-6His) (human, UniProt Q16548 1-175, biotin (enzymatic, BirA))
T1 chain: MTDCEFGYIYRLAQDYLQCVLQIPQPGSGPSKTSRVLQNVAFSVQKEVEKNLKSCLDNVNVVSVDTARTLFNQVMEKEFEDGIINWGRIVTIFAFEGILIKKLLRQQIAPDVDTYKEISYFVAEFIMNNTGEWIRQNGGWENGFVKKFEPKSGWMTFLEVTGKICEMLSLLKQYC

T2: Mcl-1, biotinylated (C-terminal avi-6His) (human, UniProt Q07820 1-350, biotin (enzymatic, BirA))
T2 chain: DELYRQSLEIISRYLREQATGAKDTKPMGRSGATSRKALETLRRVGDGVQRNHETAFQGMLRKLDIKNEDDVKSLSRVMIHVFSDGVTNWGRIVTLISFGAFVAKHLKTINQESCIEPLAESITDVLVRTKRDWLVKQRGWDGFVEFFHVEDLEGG

T3: Bcl-B, biotinylated (C-terminal avi-6His) (human, UniProt Q9HD36 1-204, biotin (enzymatic, BirA))
T3 chain: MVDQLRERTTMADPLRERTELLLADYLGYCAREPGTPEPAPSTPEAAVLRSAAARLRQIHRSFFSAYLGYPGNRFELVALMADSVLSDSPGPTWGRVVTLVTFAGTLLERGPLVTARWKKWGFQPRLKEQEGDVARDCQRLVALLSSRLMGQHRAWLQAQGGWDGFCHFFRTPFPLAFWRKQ

T4: Bcl-w, biotinylated (C-terminal avi-6His) (human, UniProt Q92843 1-193, biotin (enzymatic, BirA))
T4 chain: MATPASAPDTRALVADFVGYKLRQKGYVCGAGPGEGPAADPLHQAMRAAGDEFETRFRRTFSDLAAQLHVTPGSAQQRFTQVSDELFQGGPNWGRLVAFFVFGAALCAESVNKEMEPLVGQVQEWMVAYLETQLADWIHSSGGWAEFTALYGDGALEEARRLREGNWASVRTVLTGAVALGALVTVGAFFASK


Tests used:
Test in all cases: BLI
[1] = target: T1, Bfl-1, biotinylated (C-terminal …)
[2] = target: T2, Mcl-1, biotinylated (C-terminal …)
[3] = target: T3, Bcl-B, biotinylated (C-terminal …)
[4] = target: Bcl-xL, biotinylated (C-terminal avi-6His) (human, UniProt Q07817-1 1-233, biotin (enzymatic, BirA))
Sequence of Bcl-xL, biotinylated (C-terminal avi-6His) (Q07817 1-209): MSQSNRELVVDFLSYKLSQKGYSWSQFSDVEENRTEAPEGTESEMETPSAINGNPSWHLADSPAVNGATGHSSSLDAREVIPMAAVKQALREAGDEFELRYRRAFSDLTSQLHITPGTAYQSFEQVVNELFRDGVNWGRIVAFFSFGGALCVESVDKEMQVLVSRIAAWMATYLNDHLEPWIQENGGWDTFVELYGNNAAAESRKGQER

[5] = target: Bcl-2, biotinylated (C-terminal avi-6His) (human, UniProt P10415 1-239, biotin (enzymatic, BirA))
Sequence of Bcl-2, biotinylated (C-terminal avi-6His) (P10415 1-207): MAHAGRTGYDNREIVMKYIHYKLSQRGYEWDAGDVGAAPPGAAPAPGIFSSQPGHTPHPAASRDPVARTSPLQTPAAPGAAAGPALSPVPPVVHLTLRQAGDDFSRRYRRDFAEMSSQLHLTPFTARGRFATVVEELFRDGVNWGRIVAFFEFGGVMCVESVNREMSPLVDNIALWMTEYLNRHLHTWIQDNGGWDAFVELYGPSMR

[6] = target: T4, Bcl-w, biotinylated (C-terminal …)

| Binder | Kd [1] | Kd [2] | Kd [3] | Kd [4] | Kd [5] | Kd [6] |
| --- | --- | --- | --- | --- | --- | --- |
| 2-CDP06 (Bcl-2-targeting Computationally Designed Protein) (designed binder) MADPKKVLDKAKDEAENRVRELKQKLEELYKEARKLDLTQEMRQELVDKARAASLQAIGDIFYAILRALAEAEKLKKAGLVNSQQLDELKRRLEELAEEARRKAEKLGDEFRLKLEYG | > 50000 nM | > 50000 nM | > 50000 nM | 12000 nM | 9 nM | 1700 nM |
| B-ECM01 (enriched combinatorial mutant of B-CDP01) (designed binder) ADPKKILDKAKDQVENRVRELKQELERLYKEARKLDLTQEMRRKLHVRYIAAMLKAIAAILNAIAQAENEADKLKKAGLVNSQQLDELRRRLEELTEEAAQKAHDYGREFQLKLEY | 2400 nM | – | 80 nM | 7800 nM | – | – |
| F-ECM04 (enriched combinatorial mutant of F-CDP01) (designed binder) ADPKKVLDKAKDQAENRVRELKQKLEELYKEARKLDLTQEMRKKLEVAALGAVLAAHGDILNAIMQAKEEADKLKKAGLVNSQQLDELKRRLEELKEEALRKASDYGKEFHLKRRY | 1.1 nM | 300 nM | 4000 nM | 540 nM | – | 3800 nM |
| W-CDP03 (Bcl-w-targeting computationally designed protein) (designed binder) ADPKKVFDEAKDRAENNVRRLKQKLEELYKEARKKDLTQEEREKLKEKYKTAMAAAALAAIGDAFNALLKARKLHKNGQVNEQQLEELARRLQELAKEAFQKAKDYANEFEYKLEY | 500 nM | 57 nM | 410 nM | 7 nM | 30 nM | 8 nM |
| B-CDP01 (Bcl-B-targeting computationally designed protein) (designed binder) ADPKKVLDKAKDQAENRVRELKQELERLYKEARKLDLTQEMRRKLEWRYIAAMLKAIGDILNAIAQAENEADKLKKAGLVNSQQLDELRRRLEELAKEAARKAHDYGREFQLKLEY | 520 nM | 0.46 nM | 8 nM | 20 nM | 17 nM | 2000 nM |
| F-CDP01 (Bfl-1-targeting computationally designed protein) (designed binder) ADPKKVLDKAKDQAENRVRELKQKLEELYKEARKLDLTQEMRKKLQYAAIGAMLAAIGDILNAIMQAKQEADKLKKAGLVNSQQLDELKRRLEELKEEALRKAHDYGSEFYLKLEY | 2 nM | 4.6 nM | 100000 nM | 11 nM | – | – |
| X-CDP07 (Bcl-xL-targeting computationally designed protein) (designed binder) ADPKKVLDKAKDRAENVVRKLKKELEELYKEARKLDLTQEMRDRIRLAAIAARIAAFGDIFHAIMEALEEARKLKKAGLVNSQQLDELKRRLEELDEEAAQRAEKLGKEFELKLEY | > 50000 nM | – | – | – | 4 nM | – |

Reference: PMC5127641 (2016)
